Experimental data taken from US10379127B2, “Marker of cell death” (priority 2013, dated 2019).

Experiments:
Jurkat cells [1] = test: Relative proportions of live, apoptotic and dead Jurkat cells challenged with staurosporine (Sytox Red and MAb2C4:AF568 staining); assay type: cell-based; conditions: 2×10^−7M, 5×10^−7M and 10×10^−7M for 40 hours, FIG. 10
Protocol: Analysis of relative proportions of live, apoptotic and dead Jurkat cells challenged with 2×10^−7M, 5×10^−7M and 10×10^−7M staurosporine for 40 hours.

Jurkat cells [2] = test: FACS analysis of Jurkat cells induced to undergo Programmed Cell Death, live-stained with antibody:fluorophore conjugate; assay type: cell-based
Protocol: FIG. 6. Scatter plots from FACS analysis of Jurkat cells treated with the cytotoxin staurosporine (5×10^-7M) for 40 hours to induce Programmed Cell Death including apoptosis and finally cell death (necrosis). The populations of live, apoptotic and dead cells were live-stained with 1 μg/mL MAb2C4:AF568 and/or annexin V:AF488 and the fluorescence intensity (FI) of each shown on the ordinate and abscissa respectively. A: Cell populations stained with MAb2C4:AF568 alone; B: Cell populations stained with MAb2C4:AF568 plus annexin V:AF488; C: Cell populations stained with annexin V:AF488 alone; D: Cell populations stained with MAbFLAG:AF568 plus annexin V:AF488; E: No additions.
FIG. 7. Histograms from FACS analysis of Jurkat cells induced to undergo Programmed Cell Death [PCD] (as for FIG. 6). Shown are overlaid curves representative of live, apoptotic and necrotic (dead) cell populations [A, B & C]. In D these curves are aligned for ease of comparison.
FIG. 8. Overlaid scatter plots showing increasing FI of apoptotic and dead Jurkat populations stained with MAb2C4:AF568 compared to the MAbFLAG:AF568 isotype control.
FIG. 9. Scatter plots showing FI with MAb2C4:AF568 (abscissa) and/or Sytox Red (ordinate). A: Sytox Red alone; B: Increased FI of apoptotic, transition and dead (necrotic) cell populations stained with MAb2C4:AF568; C: Overlaid dot plots of A & B.
MAb2C4 is a mouse anti-human CTR antibody (IgG1) that binds an extracellular epitope and has been conjugated with AlexaFluor 568 (MAb2C4:AF568). […] MAb2C4:AF568 was validated using cell lines expressing human calcitonin receptor (hCTR).
MAbFLAG:AF568 is an IgG1 isotype control. This conjugate was validated using a stable transfectant HEK293 cell line that expresses the PA receptor tagged with a FLAG epitope sequence. The FLAG epitope is positioned on the cell surface. Annexin V:AF488 binds the plasma membrane of dying (apoptotic) and dead (necrotic) cells.

Molecule	proportion of live cells (Jurkat cells [1])	proportion of apoptotic and dead cell populations (Jurkat cells [1]; Sytox Red and MAb2C4:AF568 staining)	binding to apoptotic and dead cells (Jurkat cells [2]; Example 5 summary statement)	FI (red channel) of apoptotic and dead cell populations, histograms (Jurkat cells [2]; Jurkat cells induced to undergo PCD as for FIG. 6, compared to MAbFLAG:AF568 isotype control, FIG. 7)	fluorescence intensity (FI), scatter plots (Jurkat cells [2]; Jurkat cells, staurosporine 5×10^-7M for 40 hours, live-stained 1 μg/mL, with or without annexin V:AF488, FIG. 6)	FI of apoptotic and dead Jurkat populations, overlaid scatter plots (Jurkat cells [2]; compared to MAbFLAG:AF568 isotype control, FIG. 8)	FI of apoptotic, transition and dead (necrotic) cell populations (Jurkat cells [2]; scatter plots with Sytox Red on the ordinate, FIG. 9)
CN[C@@H]1C[C@H]2O[C@@](C)([C@@H]1OC)n1c3ccccc3c3c4c(c5c6ccccc6n2c5c31)C(=O)NC4 [staurosporine]	decreases with increasing concentrations	increases					
MAb2C4:AF568: mouse anti-human CTR antibody (IgG1) that binds an extracellular epitope, conjugated with AlexaFluor 568 (conjugate) VH: QVHLQQSGAELARPGASVRLSCEASGYTFTKYWMQWIKQRPGQGLEWIGAIYPGDGDSRYTPKFKGKATLTADKSSGTAYIQLSSLASEDSAVYYCARGDGTYWGQGTLVTVSA VL: DIQMTQSPASLSASVGETVTITCRASENIYSYLAWYQQKQGKSPQLLVYKAKTLEEGVPSRFSGSGSGTQFSLKINSLQPEDFGSYYCQHHYGTPRTFGGGTKLEIK			binds apoptotic cells and is accumulated into dead cells	increase in FI	increased FI	increasing FI	Increased FI
